The target of assay [1] is eIF4G1 (Saccharomyces cerevisiae) (UniProt P39935). The note with it: cited from earlier work.
Assay [2] deals with Cy5-eIF4E(A124C) (S. cerevisiae) (UniProt P07260). The assay is described as follows: single-molecule FRET.
For assay [3] the target is unchanged. The assay can be described thus: single-molecule FRET. This is another data set of the same source.

The source of these data is article PMC3878992.

Where two headings read alike, the source gives them in different places.

By Kd is commonly meant the constant that tells how readily two partners part at equilibrium.

For eIF4E (from UniProt P07260), the equilibrium dissociation constant (Kd) in assay [1] is under 15 nM.

B1: full-length eIF4G1 (natural protein)
chain: MTDETAHPTQSASKQESAALKQTGDDQQESQQQRGYTNYNNGSNYTQKKPYNSNRPHQQRGGKFGPNRYNNRGNYNGGGSFRGGHMGANSSNVPWTGYYNNYPVYYQPQQMAAAGSAPANPIPVEEKSPVPTKIEITTKSGEHLDLKEQHKAKLQSQERSTVSPQPESKLKETSDSTSTSTPTPTPSTNDSKASSEENISEAEKTRRNFIEQVKLRKAALEKKRKEQLEGSSGNNNIPMKTTPENVEEKGSDKPEVTEKTKPAEEKSAEPEVKQETPAEEGEQGEKGQIKEESTPKVLTFAERLKLKKQQKEREEKTEGKENKEVPVQEETKSAIESAPVPPSEQVKEETEVAETEQSNIDESATTPAIPTKSDEAEAEVEAEAGDAGTKIGLEAEIETTTDETDDGTNTVSHILNVLKDATPIEDVFSFNYPEGIEGPDIKYKKEHVKYTYGPTFLLQFKDKLNVKADAEWVQSTASKIVIPPGMGRGNRSRDSGRFGNNSSRGHDFRNTSVRNMDDRANSRTSSKRRSKRMNDDRRSNRSYTSRRDRERGSYRNEEKREDDKPKEEVAPLVPSANRWVPKFKSKKTEKKLAPDGKTELLDKDEVERKMKSLLNKLTLEMFDAISSEILAIANISVWETNGETLKAVIEQIFLKACDEPHWSSMYAQLCGKVVKELNPDITDETNEGKTGPKLVLHYLVARCHAEFDKGWTDKLPTNEDGTPLEPEMMSEEYYAAASAKRRGLGLVRFIGFLYRLNLLTGKMMFECFRRLMKDLTDSPSEETLESVVELLNTVGEQFETDSFRTGQATLEGSQLLDSLFGILDNIIQTAKISSRIKFKLIDIKELRHDKNWNSDKKDNGPKTIQQIHEEEERQRQLKNNSRSNSRRTNNSSNRHSFRRDAPPASKDSFITTRTYSQRNSQRAPPPKEEPAAPTSTATNMFSALMGESDDEE
As to B1, in assay [2], the Kd was 20 nM.

B2: eIF4G1 eIF4E-binding domain (4EBD) flanked by additional eIF4G1 sequence (amino acids 348-513) (domain or fragment)
chain: EETEVAETEQSNIDESATTPAIPTKSDEAEAEVEAEAGDAGTKIGLEAEIETTTDETDDGTNTVSHILNVLKDATPIEDVFSFNYPEGIEGPDIKYKKEHVKYTYGPTFLLQFKDKLNVKADAEWVQSTASKIVIPPGMGRGNRSRDSGRFGNNSSRGHDFRNTSV
Consider B2, for which the Kd was found to be 25 nM in assay [2] and 20 nM in assay [3].
